In US20260151519A1 (AKTIS ONCOLOGY, published 2026):
Bridges are numbered along the chain shown (N, C = ends). Primed or numbered codes have the meaning given here. Where no end group is shown, it is not given here. [ ]: non-standard residue; d: D form. The star is where a group is joined. DOTA = O=C(O)CN1CCN(CC(=O)O)CCN(CC(=O)*)CCN(CC(=O)O)CC1; Biotin = O=C1N[C@H]2[C@H](CS[C@H]2CCCCC(=O)*)N1; hydroxy‑norleucine = hydroxy-norleucine residue; Cit = NC(=O)NCCC[C@H](N)C(=O)O; PEG4″ = 4(ethylene glycol); PEG12′ = not defined here; Nle = CCCC[C@H](N)C(=O)O

T1: Human Nectin-4 (human, UniProt Q96NY8 32-349, limits assumed)
T1 construct: Protein immobilised on the SPR chip; also called target protein
T1 sequence: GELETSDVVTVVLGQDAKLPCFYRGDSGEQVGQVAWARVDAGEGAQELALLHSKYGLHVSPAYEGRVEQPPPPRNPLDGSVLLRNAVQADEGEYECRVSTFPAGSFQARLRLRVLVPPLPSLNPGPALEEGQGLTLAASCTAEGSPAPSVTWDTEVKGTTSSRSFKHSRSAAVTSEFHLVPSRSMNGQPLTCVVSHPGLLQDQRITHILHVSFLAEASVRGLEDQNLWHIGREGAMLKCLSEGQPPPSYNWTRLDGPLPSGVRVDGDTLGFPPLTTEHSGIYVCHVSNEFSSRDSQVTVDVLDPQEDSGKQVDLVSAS


Biological target: T1, Human Nectin-4
Assay: Table 2B (DELFIA or SPR)

Binder	Kd
{Biotin-PEG4″}-CEYDEEFFTALA[Cit]LRGGDICEYIQAKFQYLPGLCIEEILDNLGCS-OH (designed binder, disulfide 1-34, 20-44) [C171]	2.2 nM
{Biotin-PEG4″}-CDYDEEFFTALA[Cit]LRGGDICEYIQAKFQYLPGLCIEEILDNLGCS-OH (designed binder, disulfide 1-34, 20-44) [C176]	1.3 nM
{Biotin-PEG4″}-CEYDEEFFTALA[Cit]LRGDDICSYIQAKFQYLPGLCIEEILDNLGCS-OH (designed binder, disulfide 1-34, 20-44) [C172]	1.8 nM
{Biotin-PEG4″}-CEYDEEFFTALA[Cit]LRGGDICYYIQAKFQYLPGLCIEEILDNLGCS-OH (designed binder, disulfide 1-34, 20-44) [C163]	1.9 nM
{Biotin-PEG4″}-CEYDEEFFTALA[Cit]LRGGDICSYIQAKFQYLPGLCIEEILDNLGCS-OH (designed binder, disulfide 1-34, 20-44) [C175]	2.3 nM
Ac-CEYDEEFFDGLKRLRGGDICYYIKKKFKKVPDLCIEEILDKLGC-OH (designed binder, disulfide 1-34, 20-44) [C27]	9.85 nM
Ac-CEYDEEFFSGLKRLRGGDICYYIKKKFKKVPDLCIEEILDKLGC-OH (designed binder, disulfide 1-34, 20-44) [C28]	5.29 nM
Ac-CEYDEEFFTDLKRLRGGDICYYIKKKFKKVPKLCIEEILDKLGC-OH (designed binder, disulfide 1-34, 20-44) [C52]	5.24 nM
Ac-CEYDEEFFLGLKRLRGGDICYYIKKKFKKVPELCIEEILEKLGC-OH (designed binder, disulfide 1-34, 20-44) [C68]	2.66 nM
Ac-CEYDEEFFTALKRLRGGDICYYIKKKFKKVPKLCIEEILEKLGC-OH (designed binder, disulfide 1-34, 20-44) [C79]	0.38 nM
Ac-CEYDEEFFTGLKRLRGGDICYYIKKKFKKVPKLCIEEILDKLGC-OH (designed binder, disulfide 1-34, 20-44) [C31]	1.31 nM
Ac-CEYDEEFFTGLKRLRGGDICYYIKKKFKKVPDLCIEEILEKLGC-OH (designed binder, disulfide 1-34, 20-44) [C45]	3.29 nM
Ac-CEYDEEFFLGLKRLRGGDICYYIKKKFKKVPDLCIEEILDKLGC-OH (designed binder, disulfide 1-34, 20-44) [C34]	3.17 nM
Ac-CEYDEEFFLGLKRLRGGDICYYIKKKFKKVPELCIEEILKKLGC-OH (designed binder, disulfide 1-34, 20-44) [C67]	2.64 nM
Ac-CEYDEKFFTGLKRLRGGDICYYIKKKFKKVPDLCIEEILDKLGC-OH (designed binder, disulfide 1-34, 20-44) [C46]	2.28 nM
Ac-CEYDEQFFTGLKRLRGGDICYYIKKKFKKVPKLCIEEILDKLGC-OH (designed binder, disulfide 1-34, 20-44) [C71]	2.85 nM
Ac-CEYDEEFFLALKRLRGGDICYYIKKKFKKVPKLCIEEILDKLGC-OH (designed binder, disulfide 1-34, 20-44) [C78]	0.49 nM
Ac-CEYDEEFFKGLKRLRGGDICYYIKKKFKKVPKLCIEEILDKLGC-OH (designed binder, disulfide 1-34, 20-44) [C80]	2.7 nM
Ac-CEYDEEFFLGLKRLRGGDICYYIKKKFKKVPDLCIEEILKKLGC-OH (designed binder, disulfide 1-34, 20-44) [C64]	3.8 nM
Ac-CEYDEEFFKALKRLRGGDICYYIKKKFKKVPKLCIEEILDKLGC-OH (designed binder, disulfide 1-34, 20-44) [C81]	0.43 nM
Ac-CEYDEEFFLGLKRLRGGDICYYIKKKFKKVPKLCIEEILDKLGC-OH (designed binder, disulfide 1-34, 20-44) [C58]	1.81 nM
Ac-CEYDEEFFLGLKRLRGGDICYYIKKKFKKVPDLCIEEILEKLGC-OH (designed binder, disulfide 1-34, 20-44) [C60]	3.17 nM

Binder	Kd
Ac-CEYDEKFFTGLKRLRGGDICYYIKKKFKKVPKLCIEEILDKLGC-OH (designed binder, disulfide 1-34, 20-44) [C70]	2.2 nM
Ac-CEYDEEFFTGLKRLRGGDICYYIKKKFKKVPELCIEEILKKLGC-OH (designed binder, disulfide 1-34, 20-44) [C65]	2.21 nM
Ac-CEYDEEFFTGLKRLRGGDICYYIKKKFKKVPELCIEEILEKLGC-OH (designed binder, disulfide 1-34, 20-44) [C66]	2.63 nM
Ac-CEYDEEFFTGLKRLRGGTICYYIKKKFKKVPDLCIEEILDKLGC-OH (designed binder, disulfide 1-34, 20-44) [C41]	5.6 nM
Ac-CEYDEEFFTLLKRLRGGDICYYIKKKFKKVPKLCIEEILDKLGC (designed binder, disulfide 1-34, 20-44) [C56]	3.88 nM
Ac-CEYDEEFFLGLKRLRGGDICYYIKKKFKKVPKLCIEEILKKLGC-OH (designed binder, disulfide 1-34, 20-44) [C63]	1.97 nM
Ac-CEYDEEFFKALKRLRGGDICYYIKKKFKKVPKLCIEEILEKLGC-OH (designed binder, disulfide 1-34, 20-44) [C76]	0.52 nM
Ac-CEYDEEFFLGLKRLRGGDICYYIKKKFKKVPKLCIEEILEKLGC-OH (designed binder, disulfide 1-34, 20-44) [C61]	1.79 nM
Ac-CEYDEEFFTGLKRLRGGDICYYIKKKFKKVPDLCIEEILDKLGC-OH (designed binder, disulfide 1-34, 20-44) [C29]	3.91 nM
Ac-CEYDEEFFTALKRLRGGDICYYIKKKFKKVPKLCIEEILDKLGC-OH (designed binder, disulfide 1-34, 20-44) [C57]	0.29 nM
Ac-CEYDEEFFQGLKRLRGGDICYYIKKKFKKVPDLCIEEILDKLGC-OH (designed binder, disulfide 1-34, 20-44) [C33]	3.47 nM
Ac-CEYDEEFFTGLKRLRGGDICYYIKKKFKKVPDLCIEEILKKLGC-OH (designed binder, disulfide 1-34, 20-44) [C44]	3.14 nM
Ac-CEYDEEFFTGLKRLRGGDICYYIKKKFKKVPELCIEEILDKLGC-OH (designed binder, disulfide 1-34, 20-44) [C32]	3.26 nM
Ac-CEYDEEFFKGLKRLRGGDICYYIKKKFKKVPKLCIEEILEKLGC-OH (designed binder, disulfide 1-34, 20-44) [C69]	1.86 nM
Ac-CEYDEEFFTTLKRLRGGDICYYIKKKFKKVPKLCIEEILDKLGC-OH (designed binder, disulfide 1-34, 20-44) [C55]	3.39 nM
Ac-CEYDEEFFLALKRLRGGDICYYIKKKFKKVPKLCIEEILEKLGC-OH (designed binder, disulfide 1-34, 20-44) [C77]	0.58 nM
{DOTA-PEG12′}-CEYDEEFFAGLKRLRGGDICYYIKKKFDKVPDLCIEEILDKLGC-OH (designed binder, disulfide 1-34, 20-44) [C51]	8.37 nM
Ac-CEYDEEFFEGLKKLRGGDICYYIKKKFKKVPDLCIEEILDKLGC-OH (designed binder, disulfide 1-34, 20-44) [C30]	24.9 nM
Ac-CEYDEQFFTGLKRLRGGDICYYIKKKFKKVPDLCIEEILDKLGC-OH (designed binder, disulfide 1-34, 20-44) [C49]	1.93 nM
{Biotin-PEG4″}-CEYDEEFFTALARLRGGDICYYIQA[hydroxy‑norleucine]FQYLPGLCIEEILDNLGCS-OH (designed binder, disulfide 1-34, 20-44) [C164]	5 nM
{Biotin-PEG4″}-CEYDEEFFTALKRLRGGDICEYIQA[Nle]FQYLPGLCIEEILDNLGCS-OH (designed binder, disulfide 1-34, 20-44) [C199]	3.5 nM
